Assay [1] deals with T1, human CD39 (full length, on cells) (human, UniProt P49961 1-510).
T1 construct: Recombinant on CHOK1-hCD39 cells or natural on SK-MEL-28, SK-MEL-5 and MOLP-8 cells; the cell line is named under assay; also called hCD39; ENTPD1
T1 sequence: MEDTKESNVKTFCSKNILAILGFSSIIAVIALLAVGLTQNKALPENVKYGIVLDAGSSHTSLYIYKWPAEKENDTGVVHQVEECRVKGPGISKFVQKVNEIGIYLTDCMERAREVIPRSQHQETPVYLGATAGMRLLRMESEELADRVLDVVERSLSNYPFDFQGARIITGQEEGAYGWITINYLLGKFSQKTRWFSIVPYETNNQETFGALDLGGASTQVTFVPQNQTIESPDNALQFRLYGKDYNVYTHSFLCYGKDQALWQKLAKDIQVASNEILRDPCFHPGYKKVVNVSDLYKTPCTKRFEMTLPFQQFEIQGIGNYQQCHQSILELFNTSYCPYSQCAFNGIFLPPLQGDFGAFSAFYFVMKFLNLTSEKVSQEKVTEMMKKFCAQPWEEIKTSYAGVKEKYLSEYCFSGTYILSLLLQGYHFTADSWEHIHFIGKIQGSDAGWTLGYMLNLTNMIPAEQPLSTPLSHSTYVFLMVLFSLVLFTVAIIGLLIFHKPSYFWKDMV
The assay can be described thus: FACS competition on CHOK1-hCD39; competitor mAb21-Alexa488. The method, then:
Anti-CD39 antibodies were labeled using Alex488 labeling kit and were diluted in a series of concentrations, before mixing with CHOK1-hCD39 cells to test binding EC₅₀using FACS. The non-labeled antibodies were tested for their blocking efficacy to the labelled ones. Briefly, mononuclear CHOK1-hCD39 cells were prepared to 2×10⁶/ml and plated into 96 well at 50 μl/well, then mixed with antibodies gradients to final volume at 100 μl, and then equal volume of Alex488 label antibodies were added at two folds EC80 concentration. 96 well plates were incubated at 4° C. for 1 hour, and spun down and washed 3 times with 200 μl FACS buffer. The FACS analysis was performed on FACScelesta machine and data was analyzed by Flowjo software. The blocking percentages were calculated and those having above 80% competition rate were allocated into one epitope group, compared with the non-competing well (Alex488 labeled antibody only).
Based on the competition results, the 4 anti-CD39 hybridoma antibodies (mAb14, mAb19, mAb21, mAb23) can be grouped into 4 different epitope groups, as shown in Table 11.

Assay [2] has as its target T2, cynomolgus CD39 (full length, on CHOK1-cynoCD39 cells) (cynomolgus monkey, UniProt A0A7N9DGH8 1-510).
T2 construct: whole, on cells; also called cCD39
T2 sequence: T1 sequence with V47I, F94Y, V221I, I230T, I329V, K368N, A391S, F489V, T490I
In words: FACS, CHOK1-cynoCD39 cells. An excerpt: FACS were used to determine binding of the antibodies to cell lines expressing CD39 naturally (SK-MEL-28) or recombinantly (CHOK1-hCD39, CHOK1-cynoCD39, and CHOK1-mCD39), or with cells lacking CD39 expression (CHOK1-blank) as a negative control.
(§1) CHOK1-hCD39, CHOK1-cCD39, CHOK1-mCD39 and CHOK1-blank cells were maintained in culture medium according to ATCC procedure. Cells were collected and re-suspended in blocking buffer at a density of 3×10⁶ cells/ml. Cells were transferred to 96 well FACS plates at 100 μl/well (3×10⁵ cells/well), the plates were centrifuged and washed twice with FACS buffer (PBS, 1% FBS, 0.05% Tween-20). 4-folds serial dilution of anti-CD39 antibodies were prepared in FACS buffer starting from 30 μg/ml. Reference antibody 9-8B and mouse/human control IgG were used as positive and negative controls, respectively. Cells were re-suspended in 100 μL/well diluted antibodies, and the plates were incubated at 4° C. for 60 min. […] The plates were washed with FACS buffer, and cells were re-suspended in 100 μL/well of PBS. Cells were then analyzed with FACSVerse™ and mean fluorescence intensity were determined. Full binding curves were generated on the CD39 expressing cells by testing a range of antibody concentrations. Apparent affinity was determined for each antibody using Prism software.
(In general: A flow cytometer gives signals particle by particle.)

In assay [3] the target is T2, cynomolgus CD39 (full length, on …). The assay can be described thus: FACS, CHOK1-cynoCD39 cells. The method, then: as §1, with “software. […]” for “software.”
Reference antibodies T895 and 1394 were tested in parallel as control antibodies. […] Maximum signal (mean fluorescence intensity, MFI) differed between cells for each antibody may result from their different expression level.
The source holds these as a separate data set.

Where a chain is given by its changes, count along the chain named. Where two headings read alike, the source gives them in different places.

B1: Antibody 9-8B (antibody, V domains shown)
VH: QIQLVQSGPELKKPGETVKISCKASGYTFTHYGMNWVKQAPGKGLKWMGWINTYTGELTYADDFKGRFAFSLETSASTAYLQINNLKNEDTATYFCARRAYYRYDYVMDYWGQGTSVTVSS
VL: DIVMTQSQKFMSTSVGDRVSVTCKASHNVGTNVAWYQQKPGQSPKALIYSASYRYSGVPGRFTGSGSGTDFTLTISNVQSEDLAEYFCHQYNNYPYTFGGGTKLEIK
B1 yielded a blocking percentage in assay [1] of 16%. A half-maximal effect in assay [2] (EC50) was put at 1.6 nM.

B2: Antibody T895 (antibody, V domains shown)
VH: EVQLQQSGPELVKPGASVKMSCKASGYTFTDYNMHWVKQSHGRTLEWIGYIVPLNGGSTFNQKFKGRATLTVNTSSRTAYMELRSLTSEDSAAYYCARGGTRFAYWGQGTLVTVSA
VL: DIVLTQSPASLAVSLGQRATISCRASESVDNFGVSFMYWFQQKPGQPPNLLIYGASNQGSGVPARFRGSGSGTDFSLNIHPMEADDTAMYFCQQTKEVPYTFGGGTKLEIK
notes: also called 31895
B2 had an EC50 in assay [3] of 4.19 nM.

B3: mAb14 (antibody, V domains shown)
VH: EVKLEESGGGLVQPGGSMKLSCVASGFTFSKYWMNWVRQSPEKGLEWVAEIRLKSNKYGTHYAESVKGRFTISRDDSKNNVYLQMNNLRPEDTGIYYCTTQLDLYWFFDVWGAGTTVTVSS
VL: DIVMTQSPAILSVTPGDRVSLSCRASQSISDYLHWYQQKSHESPRLLIKYASQSISGIPSRFSGSGSGSNFTLSINSVEPEDVGVYFCQNGHSLPLTFGAGTKLELR
notes: mouse hybridoma antibody
In assay [1], B3 returned a blocking percentage of 10%. In assay [2], a half-maximal effect (EC50) was put at 3.4 nM.

B4: hu23.H5L5 (antibody, V domains shown)
VH: QVQLVQSGAEVKKPGASVKVSCKASGYNLKDTFLHWVRQAPGQGLEWMGRIDPANGNIKYDPKFQGRVTITADTSANTAYMELISLRSEDTAVYYCANSPYYYGSGYRIFDVWGQGTTVTVSS
VL: QIVLTQSPATLSLSPGERATLSCSAFSSVNYMHWYQQKPGQAPRLLIYTTSNLASGIPTRFSGSGSGTSYTLTISSLEPEDFAVYYCQQRSTYPFTFGQGTKLEIK
notes: humanized c23
The molecule B4 had an EC50 in assay [3] of 3.38 nM.

A word on the EC50: it is the concentration giving half of the maximal effect. Higher therefore signals weaker potency.
